Assay [1] deals with T1, human integrin αvβ5 (human, UniProt P06756 31-992; P18084 24-719).
T1 construct: soluble analyte in SPR at 30, 100, 300 and 1,000 nM in HEPES buffer with 5 mM magnesium chloride; heterodimer of an alpha and a beta chain
Put plainly: SPR, Biacore 3000, peptide immobilised on CM5 chip, integrin 30-1000 nM flowed; grade B = dissociation constant more than 50 nM and 100 nM or less. How it is done: (§1) However, only for the cyclic peptide 22, in which the number of lysine residues having an amino group as the immobilizing functional group was 1, the sample solution to be supplied to the sensor chip was set to 5,000 μL instead of 300 μL. Similarly, 70 μL of the mixed aqueous solution of 0.2 M EDC and 0.04 M NHS was added to another flow channel of the same sensor chip without immobilizing the sample, and then blocking treatment and washing treatment were carried out. Hereinafter, the obtained immobilization-treated sensor chip is referred to as an “immobilization-treated sensor chip A”.
(§2) After adding human integrin αvβ5 for 10 minutes at 25° C., which was diluted to 30 nM using a HEPES buffer solution to which magnesium chloride was added to 5 mM, in each flow channel of the immobilization-treated sensor chip A prepared in (1) above, the same HEPES buffer solution (containing 5 mM magnesium chloride) was allowed to flow as a running buffer for 30 minutes, and measurement was carried out with Biacore 3000.
(§3) Then, a regeneration treatment of removing human integrin αvβ5 was carried out by allowing a 0.5 M EDTA aqueous solution to flow through each flow channel for 10 minutes. Further, the above-described measurement process consisting of adding integrin for 10 minutes, allowing a running buffer to flow for 30 minutes, carrying out measurement with Biacore 3000, and carrying out regeneration treatment with 0.5 M EDTA aqueous solution was carried out in the same manner for 100 nM human integrin αvβ5, 300 nM human integrin αvβ5, and 1,000 nM human integrin αvβ5. Dissociation constant between the cyclic peptide and human integrin αvβ5 was calculated from the difference between the value measured by Biacore 3000 in the flow channel immobilized with the cyclic peptide and the value measured by Biacore 3000 in the flow channel unimmobilized with the cyclic peptide, in a case where each concentration of human integrin αvβ5 was allowed to flow, and the integrin binding property was evaluated according to the following evaluation standards. It is preferable that the evaluation result satisfies the evaluation standard A, B, or C.

Assay [2] has as its target T1, human integrin αvβ5. Kind of assay: SPR, Biacore 3000, peptide immobilised on CM5 chip, integrin 30-1000 nM flowed; grade C = dissociation constant more than 100 nM and 200 nM or less. How it is done:
as §1, §2
as §3, with “It is preferable that the evaluation result satisfies the evaluation standard A, B, or C.” left out

Bridge positions count the residues as written; N and C are the ends. Square brackets hold non-standard residues; d marks the D form. Ends that are not written are not given here. COCH2 = acetyl group that carries the bridge; hCys = N[C@@H](CCS)C(=O)O; Orn = NCCC[C@H](N)C(=O)O; Dab = NCC[C@H](N)C(=O)O; Dap = NC[C@H](N)C(=O)O

T1 sequence (P06756 31-992, chain 1 of 2): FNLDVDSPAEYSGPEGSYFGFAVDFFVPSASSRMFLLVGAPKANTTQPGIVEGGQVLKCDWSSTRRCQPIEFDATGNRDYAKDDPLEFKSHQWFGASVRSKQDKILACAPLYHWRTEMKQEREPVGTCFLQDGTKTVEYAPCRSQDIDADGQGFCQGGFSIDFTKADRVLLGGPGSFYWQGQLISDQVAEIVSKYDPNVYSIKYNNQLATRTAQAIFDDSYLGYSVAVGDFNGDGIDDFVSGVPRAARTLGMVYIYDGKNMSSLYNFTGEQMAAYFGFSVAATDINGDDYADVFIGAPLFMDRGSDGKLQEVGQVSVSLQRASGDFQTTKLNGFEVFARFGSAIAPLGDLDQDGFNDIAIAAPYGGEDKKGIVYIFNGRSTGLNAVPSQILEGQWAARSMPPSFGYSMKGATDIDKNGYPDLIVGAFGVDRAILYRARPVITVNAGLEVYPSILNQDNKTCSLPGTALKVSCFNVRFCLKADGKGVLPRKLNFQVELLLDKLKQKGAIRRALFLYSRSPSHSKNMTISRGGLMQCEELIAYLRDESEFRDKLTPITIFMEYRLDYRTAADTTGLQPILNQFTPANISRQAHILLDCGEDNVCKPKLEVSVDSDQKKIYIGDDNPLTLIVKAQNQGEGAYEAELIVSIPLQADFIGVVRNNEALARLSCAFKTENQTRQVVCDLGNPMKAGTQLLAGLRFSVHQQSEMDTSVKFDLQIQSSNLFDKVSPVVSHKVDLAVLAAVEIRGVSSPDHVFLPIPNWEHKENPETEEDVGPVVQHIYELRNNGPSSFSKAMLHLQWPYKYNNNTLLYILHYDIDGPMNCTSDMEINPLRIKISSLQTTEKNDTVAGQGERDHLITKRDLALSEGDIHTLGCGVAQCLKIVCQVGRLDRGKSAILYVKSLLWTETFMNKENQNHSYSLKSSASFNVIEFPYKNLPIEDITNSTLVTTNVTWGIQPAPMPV
T1 sequence (P18084 24-719, chain 2 of 2): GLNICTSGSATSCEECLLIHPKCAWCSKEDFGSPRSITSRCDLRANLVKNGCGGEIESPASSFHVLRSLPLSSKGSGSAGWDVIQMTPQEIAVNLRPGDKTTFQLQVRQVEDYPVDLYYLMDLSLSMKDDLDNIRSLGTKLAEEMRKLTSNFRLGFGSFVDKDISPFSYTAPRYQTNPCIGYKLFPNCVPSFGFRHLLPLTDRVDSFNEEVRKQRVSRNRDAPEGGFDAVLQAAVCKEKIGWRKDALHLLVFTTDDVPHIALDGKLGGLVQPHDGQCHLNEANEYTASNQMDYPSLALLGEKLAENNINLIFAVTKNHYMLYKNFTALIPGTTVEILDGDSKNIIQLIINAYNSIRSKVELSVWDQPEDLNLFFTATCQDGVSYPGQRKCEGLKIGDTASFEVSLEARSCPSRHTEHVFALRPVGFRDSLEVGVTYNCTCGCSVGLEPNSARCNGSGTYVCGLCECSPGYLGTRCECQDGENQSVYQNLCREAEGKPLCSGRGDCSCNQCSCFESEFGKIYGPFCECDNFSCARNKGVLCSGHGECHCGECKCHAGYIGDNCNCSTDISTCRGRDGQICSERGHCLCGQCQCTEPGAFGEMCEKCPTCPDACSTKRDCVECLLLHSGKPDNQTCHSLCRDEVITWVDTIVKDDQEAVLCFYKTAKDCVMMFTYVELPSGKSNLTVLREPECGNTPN

B1: Cyclic peptide 13 (peptide)
peptide: XXRGDXFCKKK
modifications: not fully specified; thioether: I1 alpha-NH2 through acetyl to C8; thioether: Dap(acetyl)2 to Hcy6
notes: bicyclic; all residues L; immobilised on CM5 chip through amino groups
B1: the “dissociation constant (KD)” value in assay [1] was in the range of 50 to 100 nM.

B2: Cyclic peptide 2 (peptide)
peptide: {CH2CO}-I[Dab](COCH2)RGD[hCys]F[hCys]KKK
modifications: thioether 2-6, N-8
Consider B2, for which the dissociation constant (KD) in assay [2] was 100 to 200 nM.

B3: Cyclic peptide 7 (peptide)
peptide: {CH2CO}-I[hCys]RGD[Dab]F[hCys]KKK
modifications: thioether N-8; bridge 2-6; not fully specified (residue 6, bridges); printed as I- -RGD F-(Hcy)-KKK
The molecule B3 gave a dissociation constant (KD) in assay [1] of 50 to 100 nM.

B4: Cyclic peptide 33 (peptide)
peptide: {CH2CO}-I[hCys]RGDK(COCH2)FR[hCys]KKK
modifications: thioether 2-6, N-9
In turn, B4 came in with a dissociation constant in assay [2] of 100 to 200 nM.

B5: Cyclic peptide 19 (peptide)
peptide: {CH2CO}-I[hCys]RGD[Dab](COCH2)FCKKK
modifications: thioether 2-6 via Ac; thioether N-8; not fully specified
notes: as for B1
For the molecule B5, in assay [1], the “dissociation constant (KD)” value lay within 50 to 100 nM.

B6: Cyclic peptide 4 (peptide)
peptide: {CH2CO}-IK(COCH2)RGD[hCys]F[hCys]KKK
modifications: thioether 2-6, N-8
In assay [1], B6 showed a dissociation constant (KD) of 50 to 100 nM.

B7: Cyclic peptide 10 (peptide)
peptide: ICRGD[Orn]FCKKK
modifications: bridge N-8, 2-6; not fully specified (residue 6, N-terminus, bridges)
notes: as for B1
As to B7, the “dissociation constant (KD)” value in assay [1] lay in the range of 50 to 100 nM.

B8: Cyclic peptide 41 (peptide)
peptide: {CH2CO}-V[hCys]RGD[Orn](COCH2)F[hCys]KKK
modifications: thioether 2-6, N-8
Molecule B8 returned a dissociation constant in assay [1] of 50 to 100 nM.

B9: Cyclic peptide 5 (peptide)
peptide: {CH2CO}-I[hCys]RGD[Dap](COCH2)F[hCys]KKK
modifications: thioether 2-6, N-8
In assay [1], B9 yielded a dissociation constant (KD) of 50 to 100 nM.

B10: Cyclic peptide 9 (peptide)
peptide: {CH2CO}-I[hCys]RGD[Orn](COCH2)F[hCys]KKK
modifications: thioether 2-6, N-8
For the molecule B10, in assay [1], the dissociation constant (KD) lay within 50 to 100 nM.

B11: Cyclic peptide 6 (peptide)
peptide: {CH2CO}-ICRGD[Dap](COCH2)FCKKK
modifications: thioether 2-6 via Ac; thioether N-8
notes: as for B1
For B11, the “dissociation constant (KD)” value in assay [2] lay within 100 to 200 nM.

The values above are taken from US20220098240A1 (FUJIFILM, published 2022).
